Measurements as given in the supplement of paper PMC6757056.
± gives the standard deviation of the averaged measurements.

B1: library; a variant is named by its letters at N, in order (parent)
chain: GCUGUCACCGGUGCUUGGUACGUUAUAUUCAGCCGGUCUGAUGAGUCUNNNNNNAGACGAAACAGC

Columns and labels:
(6R,S)-folinic acid [1] = variants of: B1; assay: normalized RNA/DNA level without ligand (relative to sTRSVctl = 100) (log10 (% of sTRSVctl)); HEK293T overexpressing SLC46A1; higher = less ribozyme self-cleavage, higher mRNA level; settings: without (6R,S)-folinic acid; ligand present: no
Summary of the method: (§1)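 Library plasmids carrying ribozyme switches linked to mCherry, or to eGFP in some ligand experiments, were transfected into HEK293T at 4 µg per 6-well well, with any ligand added 1 h earlier. Seventy-two hours on, total RNA was extracted with EDTA and reverse-transcribed, amplified, barcoded and sequenced. RNA level was RNA over DNA reads normalized to a spiked-in non-cleaving sequence or to the top sequences, then scaled and log-transformed. The top set was 25 sequences, the transform was ×100 and log10, and sequences needed ≥100 DNA reads.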

(6R,S)-folinic acid [2] = variants of: B1; assay: normalized RNA/DNA level with ligand (relative to sTRSVctl = 100) (log10 (% of sTRSVctl)); HEK293T overexpressing SLC46A1; ligand concentration (+) RNA-Seq: 6 mM; higher = less ribozyme self-cleavage, higher mRNA level; settings: with (6R,S)-folinic acid; ligand present: yes
Summary of the method: as §1

Row | Variant | normalized RNA/DNA level without ligand (log10) ((6R,S)-folinic acid [1]) | normalized RNA/DNA level with ligand (log10) ((6R,S)-folinic acid [2])
1 | GGGUUU | 2.029 ± 0.015 | 2.04 ± 0.036
2 | GCUGCG | 2.002 ± 0.0047 | 2.05 ± 0.029
3 | ACCCAC | 2.02 ± 0.016 | 2 ± 0.044
4 | GGUCAU | 2.01 ± 0.025 | 2.01 ± 0.044
5 | UUCCAC | 2.01 ± 0.016 | 1.99 ± 0.033
6 | GUGCAG | 1.931 ± 0.0076 | 2.01 ± 0.021
7 | CCAUGG | 1.986 ± 0.013 | 2.016 ± 0.015
8 | AUCGUU | 2.043 ± 0.0096 | 2.01 ± 0.036
9 | UCUUCC | 2.026 ± 0.018 | 2.043 ± 0.018
10 | GUUCAU | 2.019 ± 0.0083 | 2.02 ± 0.034
11 | AUGUGA | 1.944 ± 0.014 | 2.014 ± 0.019
12 | UUUCGA | 2.0498 ± 0.00034 | 2.04 ± 0.024
13 | UCUAUU | 2.048 ± 0.0024 | 2.046 ± 0.0024
14 | UGUAGA | 1.84 ± 0.021 | 2.002 ± 0.017
15 | ACUAGG | 1.912 ± 0.015 | 1.99 ± 0.038
16 | ACUAGC | 2 ± 0.011 | 2.02 ± 0.025
17 | ACGAGA | 1.968 ± 0.011 | 2.03 ± 0.028
18 | UCGCGU | 2.033 ± 0.0037 | 2.04 ± 0.032
19 | UGAGGU | 1.918 ± 0.017 | 2.02 ± 0.032
20 | CCCCAG | 2.004 ± 0.019 | 2.038 ± 0.012

Row | Variant | normalized RNA/DNA level without ligand (log10) ((6R,S)-folinic acid [1]) | normalized RNA/DNA level with ligand (log10) ((6R,S)-folinic acid [2])
21 | UGGGGC | 2.024 ± 0.01 | 2.02 ± 0.023
22 | UAAUCG | 1.795 ± 0.012 | 1.988 ± 0.016
23 | CGCCCC | 2.082 ± 0.017 | 2.04 ± 0.057
24 | GAGGAA | 1.952 ± 0.0031 | 2.01 ± 0.03
25 | UCUACG | 1.891 ± 0.0021 | 2.01 ± 0.017
26 | CGCGUU | 2.094 ± 0.014 | 2.07 ± 0.03
27 | ACUACC | 2.03 ± 0.0033 | 2.01 ± 0.04
28 | GGCAGA | 2.077 ± 0.0039 | 2.033 ± 0.004
29 | CCAGGC | 2.094 ± 0.018 | 2.05 ± 0.026
30 | CCAGGU | 2.026 ± 0.0082 | 2.05 ± 0.033
31 | GAAAUU | 2.03 ± 0.0031 | 2.05 ± 0.025
32 | GAAAUC | 2.044 ± 0.0097 | 2.027 ± 0.018
33 | UGAGAC | 1.912 ± 0.011 | 1.98 ± 0.028
34 | AGGUAU | 2.009 ± 0.0096 | 2.04 ± 0.052
35 | GGCGUU | 2.08 ± 0.027 | 2.06 ± 0.034
36 | GUGUCC | 1.97 ± 0.011 | 1.99 ± 0.034
37 | UUAUCA | 1.999 ± 0.019 | 2.01 ± 0.021
38 | CCAUCU | 2.071 ± 0.0041 | 2.07 ± 0.035
39 | UAUCUU | 2.007 ± 0.005 | 2.05 ± 0.021
40 | AGUGUC | 2.054 ± 0.0091 | 2 ± 0.046

Row | Variant | normalized RNA/DNA level without ligand (log10) ((6R,S)-folinic acid [1]) | normalized RNA/DNA level with ligand (log10) ((6R,S)-folinic acid [2])
41 | AUGGCA | 1.9865 ± 2.8e-05 | 2 ± 0.046
42 | AUACCC | 2.023 ± 0.003 | 2.01 ± 0.023
43 | CCGAGU | 2.029 ± 0.014 | 2.03 ± 0.032
44 | GGUAGG | 1.933 ± 0.013 | 1.99 ± 0.042
45 | AGGCCA | 2.0454 ± 0.0016 | 2.04 ± 0.04
46 | AGGCCU | 2.07 ± 0.031 | 2.06 ± 0.0088
47 | AGUAUC | 2.059 ± 0.0016 | 2.03 ± 0.0073
48 | GACUGU | 1.98 ± 0.011 | 1.98 ± 0.068
49 | GUCCUA | 1.994 ± 0.015 | 2.02 ± 0.043
50 | AAUUUC | 2.031 ± 0.0025 | 2.01 ± 0.049
51 | UGGCUA | 2.03 ± 0.013 | 2.05 ± 0.028
52 | UAGGGC | 2.01 ± 0.0043 | 2.02 ± 0.03
53 | CCCUCC | 2.07 ± 0.015 | 2.006 ± 0.014
54 | UCCGUA | 1.96 ± 0.029 | 2.004 ± 0.0049
55 | UGGUCG | 1.844 ± 0.015 | 1.99 ± 0.021
56 | AGCAUC | 2.082 ± 0.012 | 2.0495 ± 0.0016
57 | AGCAUA | 1.985 ± 0.014 | 2.017 ± 0.016
58 | UCUUAA | 1.962 ± 0.011 | 2.002 ± 0.0044
